# Results taken from PMC12199698, “Reliable prediction of protein–protein binding affinity changes upon mutations with Pythia-PPI” (National Science Review, 2025).
# B1: CB6 antibody (wild type) (antibody, V domains shown)
# VH: EVQLVESGGGLVQPGGSLRLSCAASGFTVSSNYMSWVRQAPGKGLEWVSVIYSGGSTFYADSVKGRFTISRDNSMNTLFLQMNSLRAEDTAVYYCARVLPMYGDYLDYWGQGTLVTVSS
# VL: not shown
# notes: heavy chain variable region of CB6; constant region of human IgG1; light chain variable part of CB6; Ig kappa chain (constant part) to which the light chain was fused; IgG1, kappa; also called WT
# Molecular target: T1, SARS-CoV-2 prototype receptor binding domain (SARS-CoV-2 prototype, GISAID …, UniProt P0DTC2)
# T1 construct: also called SARS-CoV-2 PT RBD; RBD
# Experiment: SPR; BIAcore 8K; antibody captured on a Protein A chip ([…]; running buffer PBST (PBS + 0.05% ([…]) Tween 20); […]; 1:1 (Langmuir) binding model; […]
# Conditions: both partners purified
binder,measurement,value
B1,Kd,14.6 nM
